Drawing on paper PMC12052392 (PLOS Pathogens, 2025), this text covers binding result and EC50 for 1 molecule.

The target in assay [1] is SARS-CoV-2 spike (S) protein, full-length, expressed on the surface of HEK-293T cells (SARS-CoV-2 prototype (MN908947.3), UniProt P0DTC2). Nature of the assay: flow cytometry on cells. The following applies: one partner purified.
In assay [2] the target is SARS-CoV spike (S) protein expressed on HEK-293T cells (SARS-CoV, GenBank AY278554.2, UniProt P59594). Put plainly: flow cytometry on cells. The following applies: one partner purified. A general note: Flow cytometry measures light scatter and fluorescence of single cells or particles in a stream.
Assay [3] concerns the target PANG/GD spike (S) protein expressed on HEK-293T cells (Pangolin coronavirus Guangdong …, strain). Put plainly: flow cytometry on cells. The following applies: one partner purified.
Assay [4] addresses WIV1 spike (S) protein expressed on HEK-293T cells (Bat SARS-like coronavirus WIV1 …, UniProt U5WI05, strain). Nature of the assay: flow cytometry on cells. The following applies: one partner purified.
For assay [5], the target named is HKU3 spike (S) protein expressed on HEK-293T cells (Bat SARS-like coronavirus HKU3, GenBank …, UniProt A0A7G6UAJ9, strain). Put plainly: flow cytometry on cells. The following applies: one partner purified.
The target of assay [6] is T1, GST-fused truncated S2 protein S2 (T1076-H1159) (SARS-CoV-2 prototype (MN908947.3), UniProt P0DTC2).
T1 construct: not shown: GST, N-terminal, kept
Put plainly: far-Western, overlay or dot blot. The following applies: both partners purified.

Assay [7] deals with S2 (T1076-Q1208) protein as coated in ELISA (devoid of the His tag) (SARS-CoV-2, MN908947.3, UniProt P0DTC2). Put plainly: ELISA; […], room temperature; […]. The following applies: both partners purified. On the technique in general: In an ELISA, binding on a coated surface is turned into a signal by an enzyme label.
The target in assay [8] is T2, GST-fused truncated S2 protein S2 (D1139-L1152) (SARS-CoV-2, MN908947.3).
T2 construct: not shown: GST, N-terminal, kept
T2 chain: DPLQPELDSFKEEL
Nature of the assay: ELISA; […], room temperature; […]. The following applies: both partners purified.

Assay [9] has as its target T3, GST-fused truncated S2 protein S2 (P1140-D1153) (SARS-CoV-2, MN908947.3, UniProt P0DTC2).
T3 construct: not shown: GST, N-terminal, kept
T3 chain: PLQPELDSFKEELD
Put plainly: ELISA; […], room temperature; […]. The following applies: both partners purified.

Assay [10] concerns the target T4, GST-fused truncated S2 protein S2 (P1140-L1152) (SARS-CoV-2 prototype (MN908947.3), UniProt P0DTC2).
T4 construct: not shown: GST, N-terminal, kept
T4 chain: PLQPELDSFKEEL
Put plainly: ELISA; […], room temperature; […]. The following applies: both partners purified.

The target in assay [11] is T5, GST-fused truncated S2 protein S2 (L1141-L1152) (SARS-CoV-2 prototype (MN908947.3), UniProt P0DTC2).
T5 construct: not shown: GST, N-terminal, kept
T5 chain: LQPELDSFKEEL
Put plainly: ELISA; […], room temperature; […]. The following applies: both partners purified.

B1: nanobody H17 (VHH)
VHH: EVQVVESGGGLVQTGGSLRLSCAASGSAFSSYAVNWYRQAPGKQREPVAAIGSFNTVYSDSVKGRFTISRDNAKNTVYLQMNSLKPEDTAVYVCNARRGATNYWGQGTQVTVSP
notes: also called anti-SH nNb H17; not shown: His6, C-terminal, kept
In general, EC50 refers to the concentration that produces a half-maximal response. High values mean weaker potency, low ones greater potency. As to B1, the binding result in [1], in [2], in [3], in assay [4], in [5] and in assay [6] was “binds” each time. The binding result was “binds” in [7], “no binding (tested: 200 nM)” in [9], “no binding (tested: 200 nM)” in [10] and “no binding (tested: 200 nM)” in assay [11]. For the same molecule, in assay [8], a half-maximal effect (EC50) was put at 11.3 nM.
